This is an account of results in US20240317871A1 (IMMUNOMIC THERAPEUTICS, published 2024).

Residue numbers refer to the chain shown, from its start.

T1: human HVEM (human, UniProt Q92956 39-202, limits assumed)
T1 sequence (looked up): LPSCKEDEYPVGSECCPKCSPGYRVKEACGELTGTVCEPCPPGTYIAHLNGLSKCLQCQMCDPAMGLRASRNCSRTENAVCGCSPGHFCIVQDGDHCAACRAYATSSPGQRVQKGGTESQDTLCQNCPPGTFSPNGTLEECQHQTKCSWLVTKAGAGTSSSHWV

T2: cynomolgus monkey HVEM (cynomolgus monkey, UniProt A0A2K5W0R1 39-203)
T2 sequence: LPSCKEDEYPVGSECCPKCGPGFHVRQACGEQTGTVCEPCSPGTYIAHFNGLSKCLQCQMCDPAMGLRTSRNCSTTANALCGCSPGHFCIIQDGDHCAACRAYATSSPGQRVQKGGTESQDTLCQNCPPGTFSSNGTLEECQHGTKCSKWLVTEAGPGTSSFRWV

T3: murine HVEM (murine, UniProt Q80WM9 39-206, limits assumed)
T3 construct: also called Mouse
T3 sequence (looked up): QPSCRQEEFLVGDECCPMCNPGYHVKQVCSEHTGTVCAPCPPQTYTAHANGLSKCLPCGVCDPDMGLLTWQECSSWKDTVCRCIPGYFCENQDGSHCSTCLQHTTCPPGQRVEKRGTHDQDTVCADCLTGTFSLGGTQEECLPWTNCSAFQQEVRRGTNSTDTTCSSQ

B1: Ab_040 (H5S15-23A21A) (antibody, V domains shown)
VH: EVQLQQSGTVLARPGASVKMSCKASGYTFTSFWMHWVKQRPGQGLEWIGAISPGNSETTYNQKFTGKAKLTAVTSTSTAYMELSSLTNEDSAVYYCTKIYYDYDDGYWGQGTTLTVSS
VL: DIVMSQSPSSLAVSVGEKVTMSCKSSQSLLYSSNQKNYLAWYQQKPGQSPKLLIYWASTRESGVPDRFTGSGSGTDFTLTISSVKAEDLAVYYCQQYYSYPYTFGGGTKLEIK
notes: also called Ab_40
B2: Ab_023 (H5S14-27A23A) (antibody, V domains shown)
VH: EVKLDETGGGLVQPGRPMKLSCVASGFTFSDYWMNWVRQSPEKGLEWVAQIRNKPYNYETYYSDSVKGRFTISRDDSKSSVYLQMNNLRAEDMGIYYCTWGNYWGQGTTLTVSS
VL: DIKMTQSPSSMYASLGERVTITCKASQDINSYLSWFQQKPGKSPKTLIYRANRLVDGVPSRFSGSGSGQDYSLTISSLEYEDMGIYYCLQYDEFPWTFGGGTKLEIK
notes: also called Ab_23
B3: Ab_061 (H5S19-13A16B) (antibody, V domains shown)
VH: QIQLVQSGPELKKPGETVKISCKASGYTFTNFGVNWVKQAPGKGLKWMGWINTYTGEPTYADDFKGRFAFSLETSASTAYLRINNLKNEDTATYFCARSYYANYAYWGQGTTLTVSS
VL: QIVLTQSPAIMSASPGEKVTLTCSASSSVDSSYLYWYQQKPGSSPKLWIYGTSNLASGVPARFSGSGSGTSYSLTISSMEAEDAASYFCHQWNSYPWTFGGGTKLEIK
notes: also called Ab_61
B4: Ab_075 (H5S20-12A10A) (antibody, V domains shown)
VH: B3 VH with V34M, K38R, R82Q, E89D, T91M, Y100L, A102G, Y104R, A105D
VL: QIVLTQSPAIMSASLGEEITLTCSASSSVSYMHWYQQRSGTSPKLLIYSTSNLASGVPSRFSGSGSGTFYSLTISSVEAEDAADYYCHQWSSYRTFGGGTKLEIK
notes: also called Ab_75
B5: Ab_062 (H5S19-16A18A) (antibody, V domains shown)
VH: B3 VH with R82Q, A97V, A102G, Y104S, A105G
VL: B3 VL with A13T, D30S, G51S, N93S, S94T
notes: also called Ab_62
B6: Ab_060 (H5S19-8A16A) (antibody, V domains shown)
VH: B3 VH with T93S, Y104N
VL: B3 VL with Y37F
notes: also called Ab_60
B7: Ab_048 (H5S19-24A22A) (antibody, V domains shown)
VH: QVQLQQSGGELLRPGTSVKVSCKASGYAFTNYLIEWVKQRPGQGLEWIGVINPGSGGIYYKEKFKDKAILTADKSSSTAYMQLSSLTSDDSAVYFCARGDAMDFWGQGTSVTVSS
VL: DAVMTQTPLSLTVSLGDQASISCRSSQTLENTNGNTYLNWYLQKPGQSPQLLIYRVSNRFSGVLDRFSGSGSGTDFTLKISRVEAEDLGVYFCLQVTHVPYTFGGGTKLEIK
notes: also called Ab_48
B8: Ab_039 (H5S15-21A19A) (antibody, V domains shown)
VH: QIQLVQSGPDLKKPGETVKISCKASGYTFTNYGMNWVKQAPGKDLKWMGWINTYTGEPTYADDFKGRFAFSLETSASTAYLQINNLKNDDTATYFCARSINYDSDEKWGQGTSVTVSS
VL: QIVLTQSPAIMSASLGERVTLTCTASSSVSSSYLHWYQQKPGSSPKLWIYDTSNLASGVPARFSGSGSGTSYSLTISSMEAEDAATYYCHQYHRSQWTFGGGTKLEIK
notes: also called Ab_39
B9: Ab_037 (H5S15-13A15A) (antibody, V domains shown)
VH: QVQLKQSGPGLVQPSQSLSITCTVSGFSLTSYGVHWVRQSPGKGLEWLGVIWRGGSTDYNAAFMSRLSITKDNSKSQVFFKMNSLQADDTAIYYCAKTGFAYWGQGTLVTVSA
VL: QIVLTQSPAIMSASPGEKVTMTCSASSSVSYMHWYQQKSGTSPKRWIYDTSKLASGVPARFSGSGSGTSYSLTISSMEAEDAATYYCQQWSSNPLTFGAGTKLELK
notes: also called Ab_37
B10: Ab_042 (H5S15-28A23A) (antibody, V domains shown)
VH: QVQLQQSGAELVKPGASVKMSCKAFGYTFTTYPIEWMKQNHGKSLEWIGNFHPYNDDTKYNEKFKGKAKLTVEKSSSTVYLELSRLTSDDSAVYYCARGGFAYWGQGTLVTVSA
VL: DVVMTQTPLSLPVSLGDQASISCRSSQSLVHSNGNTYLHWYLQKPGQSPKLLIYKVSNRFSGVPDRFSGSGSGTDFTLKISRVEAEDLGVYFCSQSTHVPFTFGSGTKLEIK
notes: also called Ab_42
B11: Ab_081 (H5S20-44A32A) (antibody, V domains shown)
VH: EVKLVESGGGLVQPGGSLKLSCAASGFTFSSYTMSWVRQTPEKRLEWVAYISNGGGSTYYPDTVKGRFTISRDNAKNTLYLQMSSLKSEDTAMYYCARHRGYGSSYNYAMDYWGQGTSVTVSS
VL: DIVMTQSQKFMSTSVGDRVSVTCKASQNVGTNVAWYQQKPGQSPKALIYSASYRYSGVPDRFTGSGSGTDFTLTISNVQSEDLAEYFCQQYNSYPFTFGSGTKLEIK
notes: also called Ab_81
B12: Ab_041 (H5S15-27A22A) (antibody, V domains shown)
VH: EVQLQQSGAELVKPGASVKLSCTASGFNIKDTYMHWVKQRPEQGLEWIGRIDPANGNTKYDPKFQGKATITADTSSNTAYLQLSSLTSEDTAVYYCARSRRYFDVWGAGTTVTVSS
VL: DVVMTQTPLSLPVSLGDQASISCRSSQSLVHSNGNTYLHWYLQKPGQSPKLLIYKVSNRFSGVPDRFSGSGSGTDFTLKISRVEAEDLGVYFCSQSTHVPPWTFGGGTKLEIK
notes: also called Ab_41
B13: Ab_047 (H5S15-36A32A) (antibody, V domains shown)
VH: EVQLQQSGAELVKPGASVKLSCTASGFNIKDTYMHWVKQRPEQGLEWIGRIDPANGNTKYDPKFQGKATITADTSSNTAYLQLSSLTSEDTAVYYCARPYGNYGFAYWGQGTLVTVSA
VL: DIQMTQSPASLSASVGETVTITCRASGNIHNYLAWYQQKQGKSPQLLVYNAKTLADGVPSRFSGSGSGTQYSLKINSLQPEDFGSYYCQHFWSTFTFGSGTKLEIK
notes: also called Ab_47
B14: Ab_032 (H5S15-7A8A) (antibody, V domains shown)
VH: QIQLVQSGPELKKPGETVKISCKASGYTFTNYGMNWVKQAPGKGLKWVGWINTYTGEPTYAEDFKGRFAFSLETSASTAYLQINNLKNEDMATYFCARSFYGSEAYWGQGTLVTVSA
VL: QIVLTQSPAIMSASLGEEITLTCSASSSVSFMHWYQQKSGTSPKLLIYSTSNLASGVPSRFSGSGSGTFYSLTISSVEAEDAADYYCHQWSSYLWTFGGGAKLEIK
notes: also called Ab_32
B15: Ab_076 (H5S20-26A22A) (antibody, V domains shown)
VH: QIQLVQSGPELKKPGETVKISCRASGYTFTNYGMNWVKQAPGKGLKWMGWINTYTGEPTYADDFKGRFAFSLETSASSAYLQINNLKNEDMATYFCARSLYYGDNYEAYWGQGTLVTVSA
VL: B14 VL with F31Y, T41S, S49T, L94T, A101T
notes: also called Ab_76
B16: Ab_033 (H5S15-7B8A) (antibody, V domains shown)
VH: B14 VH with E62D
VL: B14 VL
notes: also called Ab_33
B17: Ab_024 (H5S15-1A1A) (antibody, V domains shown)
VH: EVQLQQSGAELVKPGASVKLSCTASGFNIKDTYMHWVKQRPEQGLAWIGRIAPANGYTKYDPKFQGKATITTDTSSNTAYLHLSRLTSEDTAVYYCANYFGNTYDWFAFWGQGTLVTVSA
VL: ENVLTQSPAIMSASPGEKVTMTCSAGSSVSYMHWYQQKSSTSPKLWIYDTSKLPSGVPGRFSGSGSGNSYSLTISSMEAEDVATYYCFQGSGFPLTFGSGTKLEIK
notes: also called Ab_24
B18: Ab_038 (H5S15-19A18A) (antibody, V domains shown)
VH: QVQLKESGPGLVAPSQSLSITCTVSGFSLTGYGVNWVRQPPGKGLEWLGMIWGDGGTDYNSALKSRLSISKDNSKSQVFLKMNSLQTDDTARYYCARDNYHTVVNGDYWGQGTSVTVSS
VL: ENVLTQSPAIMSASPGEKVTMTCRASSSVSSSYLHWYQQKSGASPKLWIYSTSNLASGVPARFSGSGSGTSYSLTISSVEAEDAATYYCQQYSGYPLTFGGGTKLEIK
notes: also called Ab_38
B19: Ab_021 (H5S14-29A20A) (antibody, V domains shown)
VH: EVQLQQSGPELVKPGASVKMSCKASGYTFTSYVMHWVKQKPGQGLEWIGYINPYNDGTKYNEKFKGKATLTSDKSSSTAYMELSSLTSEDSAVYYCARGIITTVVEPILYAMDYWGQGTSVTVSS
VL: NIVLTQSPASLAVSLGQRATISCRASESVDSYGNSFMHWYQQKPGQPPKLLIYLASNLESGVPARFSGSGSRTDFTLTIDPVEADDAATYYCQQNNEDPYTFGGGTKLEIK
notes: also called Ab_21
Note: test concentration or dose not given here.

In one assay the target is T1, human HVEM. The assay can be described thus: ELISA.
B1 showed an ELISA signal of 0.069.
On the same count and under the same terms, under B2 stands 0.045; under B3, 2.98.
Take B4: the ELISA signal came out at 3.04.
B5 yielded an ELISA signal of 2.95.
Same read-out and setting: for B6 the value was 3.09.
As to B7, the ELISA signal turned out to be 2.5.
B8 came in with an ELISA signal of 2.87.
Same read-out and setting: under B9 stands 0.059.
As for B10, the ELISA signal came to 0.049.
The same measure, in the same setting: for B11 the value was 1.59; for B12, 0.059; for B13, 1.19.
Same read-out and setting: for B14 the value was 3.04.
B15 returned an ELISA signal of 2.89.
B16 displayed an ELISA signal of 3.1.
On the same count and under the same terms, under B17 stands 0.048; under B18, 0.049; under B19, 0.046.

The next assay has as its target T2, cynomolgus monkey HVEM. The assay can be described thus: ELISA. For orientation: ELISA stands for enzyme-linked immunosorbent assay.
Molecule B1 returned an ELISA signal of 0.098.
Still for that read-out and setting: for B2 the value was 0.057; for B3, 3.03; for B4, 3.04.
B5: the ELISA signal came out at 2.98.
Regarding B6, the ELISA signal was 3.03.
Same read-out and setting: for B7 the value was 0.826.
The same measure, in the same setting: under B8 stands 3.03.
On the same count and under the same terms, under B9 stands 0.06.
With B10, the ELISA signal was 0.062.
As for B11, the ELISA signal was 0.076.
Same read-out and setting: for B12 the value was 0.076; for B13, 0.743.
Same read-out and setting: for B14 the value was 2.87; for B15, 2.96.
The same measure, in the same setting: for B16 the value was 3.02; for B17, 0.063.
As to B18, the ELISA signal stood at 0.06.
In turn, B19 showed an ELISA signal of 0.061.

For another assay, the target named is T3, murine HVEM. The assay can be described thus: ELISA.
As for B1, the ELISA signal was 0.05.
Still for that read-out and setting: for B2 the value was 0.042.
B3 registered an ELISA signal of 0.043.
Same read-out and setting: under B4 stands 0.048.
Still for that read-out and setting: for B5 the value was 0.045.
The same measure, in the same setting: for B6 the value was 0.044; for B7, 0.044; for B8, 0.042.
B9: the ELISA signal was 0.043.
The same measure, in the same setting: under B10 stands 0.046.
Molecule B11 showed an ELISA signal of 0.048.
Take B12: the ELISA signal turned out to be 0.045.
Molecule B13 had an ELISA signal of 0.051.
In turn, B14 had an ELISA signal of 0.045.
Same read-out and setting: for B15 the value was 0.044; for B16, 0.043.
As for B17, the ELISA signal turned out to be 0.044.
Same read-out and setting: for B18 the value was 0.043.
Still for that read-out and setting: under B19 stands 0.042.
